The source of these data is IntAct's records for PubMed 22334672.

B1: mRNA export factor (Human herpesvirus 1 (strain 17) (HHV-1)), P10238 (parent)
chain: MATDIDMLIDLGLDLSDSDLDEDPPEPAESRRDDLESDSSGECSSSDEDMEDPHGEDGPEPILDAARPAVRPSRPEDPGVPSTQTPRPTERQGPNDPQPAPHSVWSRLGARRPSCSPEQHGGKVARLQPPPTKAQPARGGRRGRRRGRGRGGPGAADGLSDPRRRAPRTNRNPGGPRPGAGWTDGPGAPHGEAWRGSEQPDPPGGQRTRGVRQAPPPLMTLAIAPPPADPRAPAPERKAPAADTIDATTRLVLRSISERAAVDRISESFGRSAQVMHDPFGGQPFPAANSPWAPVLAGQGGPFDAETRRVSWETLVAHGPSLYRTFAGNPRAASTAKAMRDCVLRQENFIEALASADETLAWCKMCIHHNLPLRPQDPIIGTTAAVLDNLATRLRPFLQCYLKARGLCGLDELCSRRRLADIKDIASFVFVILARLANRVERGVAEIDYATLGVGVGEKMHFYLPGACMAGLIEILDTHRQECSSRVCELTASHIVAPPYVHGKYFYCNSLF
partner: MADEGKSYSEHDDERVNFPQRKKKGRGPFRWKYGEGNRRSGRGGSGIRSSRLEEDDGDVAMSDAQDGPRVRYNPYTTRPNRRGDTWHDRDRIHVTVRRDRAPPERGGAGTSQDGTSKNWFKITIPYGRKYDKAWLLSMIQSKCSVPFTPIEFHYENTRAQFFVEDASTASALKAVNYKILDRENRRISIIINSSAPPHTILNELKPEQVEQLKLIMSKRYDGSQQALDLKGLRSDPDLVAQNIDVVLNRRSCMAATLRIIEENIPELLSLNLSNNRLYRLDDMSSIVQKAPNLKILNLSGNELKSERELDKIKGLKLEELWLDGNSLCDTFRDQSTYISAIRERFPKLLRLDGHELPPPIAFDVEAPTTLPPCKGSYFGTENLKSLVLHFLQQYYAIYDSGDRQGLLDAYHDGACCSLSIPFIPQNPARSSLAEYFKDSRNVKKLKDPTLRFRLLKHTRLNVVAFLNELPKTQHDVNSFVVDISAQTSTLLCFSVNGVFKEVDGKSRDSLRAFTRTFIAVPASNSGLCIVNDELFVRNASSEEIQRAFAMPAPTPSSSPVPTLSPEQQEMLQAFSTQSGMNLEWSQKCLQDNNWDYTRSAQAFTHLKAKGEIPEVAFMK

In this assay the parent is B1. The conditions noted are these: with nxf1_human NXF1, Q9UBU9.
Take P465L;G466E: the “effect of a mutation on the interaction” value is recorded as “disrupting interaction”.
